Measurements from US20190136246A1 (CSIR, published 2019).

T1: BTV-8 VP7 (SEQ ID NO:6) (Bluetongue virus serotype 8, UniProt P69361 1-349)
T1 sequence: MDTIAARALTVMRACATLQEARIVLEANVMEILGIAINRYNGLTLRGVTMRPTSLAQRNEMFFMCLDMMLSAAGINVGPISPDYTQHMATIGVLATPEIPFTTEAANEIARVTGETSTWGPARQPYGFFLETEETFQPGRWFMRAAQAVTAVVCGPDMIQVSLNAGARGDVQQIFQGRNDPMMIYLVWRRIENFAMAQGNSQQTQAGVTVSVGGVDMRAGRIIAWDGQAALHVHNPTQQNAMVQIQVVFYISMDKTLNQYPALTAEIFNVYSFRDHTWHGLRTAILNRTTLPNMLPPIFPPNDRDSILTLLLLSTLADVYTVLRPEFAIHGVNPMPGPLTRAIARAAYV

T2: BTV-8 VP3 (SEQ ID NO:1) (Bluetongue virus serotype 8, UniProt P12435 1-901)
T2 sequence: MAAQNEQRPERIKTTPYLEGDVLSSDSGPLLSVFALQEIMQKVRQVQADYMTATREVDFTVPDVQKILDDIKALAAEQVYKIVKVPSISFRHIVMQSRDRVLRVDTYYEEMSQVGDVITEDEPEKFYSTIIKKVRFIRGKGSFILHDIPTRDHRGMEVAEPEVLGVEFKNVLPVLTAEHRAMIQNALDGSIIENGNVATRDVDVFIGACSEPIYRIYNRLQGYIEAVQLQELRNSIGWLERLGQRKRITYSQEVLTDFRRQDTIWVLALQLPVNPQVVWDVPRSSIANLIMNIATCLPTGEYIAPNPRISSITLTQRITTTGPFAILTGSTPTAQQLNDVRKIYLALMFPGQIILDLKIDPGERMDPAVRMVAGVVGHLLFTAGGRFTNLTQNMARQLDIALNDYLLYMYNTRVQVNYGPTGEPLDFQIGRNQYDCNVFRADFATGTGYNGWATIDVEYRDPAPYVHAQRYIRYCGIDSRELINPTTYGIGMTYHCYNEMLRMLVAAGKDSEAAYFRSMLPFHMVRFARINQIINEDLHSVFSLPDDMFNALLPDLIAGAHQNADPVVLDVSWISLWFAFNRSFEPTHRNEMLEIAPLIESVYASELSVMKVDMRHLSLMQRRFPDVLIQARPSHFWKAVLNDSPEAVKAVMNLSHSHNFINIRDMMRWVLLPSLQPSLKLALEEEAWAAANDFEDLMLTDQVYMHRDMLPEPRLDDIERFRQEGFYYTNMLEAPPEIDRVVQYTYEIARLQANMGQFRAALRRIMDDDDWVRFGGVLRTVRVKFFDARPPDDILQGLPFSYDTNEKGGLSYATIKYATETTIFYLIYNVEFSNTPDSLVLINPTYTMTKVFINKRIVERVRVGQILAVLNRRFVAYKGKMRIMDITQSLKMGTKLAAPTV


Tests used:
[1] = target: T1, BTV-8 VP7 (SEQ ID NO:6); test: CLP assembly on co-expression; sucrose gradient, TEM (FIG. 13)
[2] = target: T2, BTV-8 VP3 (SEQ ID NO:1); test: particle assembly on co-expression in N. benthamiana; iodixanol gradient, TEM

Binder | binding result [1] | binding result [2]
BTV-8 VP3 (SEQ ID NO:2) (other) MAAQNEQRPERIKTTPYLEGDVLSSDSGPLLSVFALQEIMQKVRQVQADYMTATREVDFTVPDVQKILDDIKALAAEQVYKIVKVPSISFRHIVMQSRDRVLRVDTYYEEMSQVGDVITEDEPEKFYSTIIKKVRFIRGKGSFILHDIPTRDHRGMEVAEPEVLGVEFKNVLPVLTAEHRAMIQNALDGSIIENGNVATRDVDVFIGACSEPIYRIYNRLQGYIEAVQLQELRNSIGWLERLGQRKRITYSQEVLTDFRRQDTIWVLALQLPVNPQVVWDVPRSSIANLIMNIATCLPTGEYIAPNPRISSITLTQRITTTGPFAILTGSTPTAQQLNDVRKIYLALMFPGQIILDLKIDPGERMDPAVRMVAGVVGHLLFTAGGRFTNLTQNMARQLDIALNDYLLYMYNTRVQVNYGPTGEPLDFQIGRNQYDCNVFRADFATGTGYNGWATIDVEYRDPAPYVHAQRYIRYCGIDSRELINPTTYGIGMTYHCYNEMLRMLVAAGKDSEAAYFRSMLPFHMVRFARINQIINEDLHSVFSLPDDVFNALLPDLIAGAHQNADPVVLDVSWISLWFAFNRSFEPTHRNEMLEIAPLIESVYASELSVMKVDMRHLSLMQRRFPDVLIQARPSHFWKAVLNDSPEAVKAVMNLSHSHNFINIRDMMRWVLLPSLQPSLKLALEEEAWAAANDFEDLMLTDQVYMHRDMLPEPRLDDIERFRQEGFYYTNMLEAPPEIDRVVQYTYEIARLQANMGQFRAALRRIMDDDDWVRFGGVLRTVRVKFFDARPPDDILQGLPFSYDTNEKGGLSYATIKYATETTIFYLIYNVEFSNTPDSLVLINPTYTMTKVFINKRIVERVRVGQILAVLNRRFVAYKGKMRIMDITQSLKMGTKLAAPTV | binds | 
BTV-8 VP7 (SEQ ID NO:5) (other) MDTIAARALTVMRACATLQEARIVLEANVMEILGIAINRYNGLTLRGVTMRPTSLAQRNEMFFMCLDMMLSAAGINVGPISPDYTQHMATIGVLATPEIPFTTEAANEIARVTGETSTWGPARQPYGFFLETEETFQPGRWFMRAAQAVTAVVCGPDMIQVSLNAGARGDVQQIFQGRNDPMMIYLVWRRIENFAMAQGNSQQTQAGVTVSVGGVDMRAGRIIAWDGQAALHVHNPTQQNAMVQIQVVFYISMDKTLNQYPALTAEIFNVYSFRDHTWHGLRTAILNRTTLPNMLPPIFPPNDRDSILTLLLLSTLADVYTVLRPEFAIHGVNPMPGPLTRAIARAAYV |  | binds
